In the supplement of paper PMC7877785:
± gives the uncertainty stated by the source.

Test: self-splicing fitness, log relative to wild type (ln ratio); higher = more splicing; Tetrahymena group I intron in knt gene, E. coli kanamycin selection, DiMSum; sequences stand for … in CUCUCU…GGAGGGAAAAGUUAUCAGGCAUGCACCUGGUAGCUAGUCUUUAAACCAAUAGAUUGCAUCGGUUUAAAAGGCAAGACCGUCAAAUUGCGGGAAAGGGGUCAACAGCCGUUCAGUACCAAGUCUCAGGGGAAACUUUGAGAUGGCCUUGCAAAGGGUAUGGUAAUAAGCUGACGGACAUGGUCCUAACCACGCAGCCAAGUCCUAAGUCAACAGAUCUUCUGUUGAUAUGGAUGCAGUUCACAGACUAAAUGUCGGUCGGGGAAGAUGUAUUCUUCUCAUAAGAUAUAGUCGGACCUCUCCUUAAUGGGAGCUAGCGGAUGAAGUGAUGCAACACUGGAGCCGCUGGGAACUAAUUUGUAUGCGAAAGUAUAUUGAUUAGUUUUGGAGUACUCGUGGUCG
Outline: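 A randomised library covering all eight P1ex-region intron nucleotides was built with the intron in the knt kanamycin-resistance gene on pET-22b(+) and held in E. coli BL21(DE3). Cells were grown overnight at 37°C or 30°C on LB agar, with or without 25 μg/mL kanamycin, plus 100 μg/mL carbenicillin, 50 μM IPTG and 0.2% rhamnose, and pooled colonies were amplicon-sequenced on an Illumina HiSeq 2500. DiMSum fitness is the error-weighted combination of wild-type-normalised replicate fold changes, kanamycin versus none.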

Sequence	self-splicing fitness (ln) (30 °C)	self-splicing fitness (ln) (37 °C)
GCCGAGCAAUAUUACGGGAA	-1.01 ± 0.073	-0.813 ± 0.088
GCCGAGCAAUAUUACGGGCA	-2.24 ± 0.25	-0.776 ± 0.17
GCCGAGCAAUAUUACGGGCU	-3.27 ± 0.23	-2.43 ± 0.27
GCCGAGCAAUAUUACGGUAA	-0.184 ± 0.11	-0.414 ± 0.091
GCCGAGCAAUAUUACGGUGU	-2.57 ± 0.11	-0.986 ± 0.11
GCCGAGCAAUAUUACGUAUU	-3.72 ± 0.21	-1.9 ± 0.15
GCCGAGCAAUAUUACGUCCG	-3.69 ± 0.28	-2.87 ± 0.29
GCCGAGCAAUAUUACGUGAG	-1.23 ± 0.09	-0.333 ± 0.12
GCCGAGCAAUAUUACGUGUC	-3.23 ± 0.14	-1.64 ± 0.12
GCCGAGCAAUAUUACGUUGA	-3 ± 0.16	-2.88 ± 0.2
GCCGAGCAAUAUUACGUUUC	-3.12 ± 0.14	-2.28 ± 0.15
GCCUAGCAAUAUUACGAAGA	-1.82 ± 0.24	-0.65 ± 0.12
GCCUAGCAAUAUUACGACUA	–	-1.93 ± 0.38
GCCUAGCAAUAUUACGAGCA	-2.26 ± 0.33	-0.418 ± 0.17
GCCUAGCAAUAUUACGCACA	-0.975 ± 0.12	-0.604 ± 0.13
GCCUAGCAAUAUUACGCAUU	-0.686 ± 0.051	-0.35 ± 0.062
GCCUAGCAAUAUUACGCCAC	-2.82 ± 0.26	-2.2 ± 0.23
GCCUAGCAAUAUUACGCGAC	-1.92 ± 0.19	-1.05 ± 0.27
GCCUAGCAAUAUUACGCGAG	-2.33 ± 0.21	-2.29 ± 0.16
GCCUAGCAAUAUUACGCGGA	-0.245 ± 0.08	0.226 ± 0.093
GCCUAGCAAUAUUACGCUAC	-2.7 ± 0.21	-2.81 ± 0.36
GCCUAGCAAUAUUACGCUGU	-0.847 ± 0.09	0.254 ± 0.096
GCCUAGCAAUAUUACGGAAC	-0.183 ± 0.091	0.0968 ± 0.16
GCCUAGCAAUAUUACGGACG	-1.98 ± 0.2	-0.148 ± 0.18
GCCUAGCAAUAUUACGGAGU	-0.965 ± 0.085	-0.198 ± 0.094

Sequence	self-splicing fitness (ln) (30 °C)	self-splicing fitness (ln) (37 °C)
GCCUAGCAAUAUUACGGAUC	-0.351 ± 0.12	-0.096 ± 0.16
GCCUAGCAAUAUUACGGGGU	-3.83 ± 0.19	-2.19 ± 0.19
GCCUAGCAAUAUUACGUACA	-2.54 ± 0.14	-1.7 ± 0.13
GCCUAGCAAUAUUACGUACC	-1.18 ± 0.099	-0.205 ± 0.12
GCCUAGCAAUAUUACGUAGC	-0.323 ± 0.11	-0.445 ± 0.11
GCCUAGCAAUAUUACGUAGG	-3.69 ± 0.18	-2.93 ± 0.25
GCCUAGCAAUAUUACGUAGU	-0.126 ± 0.068	0.357 ± 0.088
GCCUAGCAAUAUUACGUAUG	-3.92 ± 0.16	-2.61 ± 0.13
GCCUAGCAAUAUUACGUAUU	-1.83 ± 0.098	-1.73 ± 0.14
GCCUAGCAAUAUUACGUCCA	-2.37 ± 0.18	-1.38 ± 0.18
GCCUAGCAAUAUUACGUCUC	-0.71 ± 0.064	-0.518 ± 0.086
GCCUAGCAAUAUUACGUGUG	-1.85 ± 0.057	-0.937 ± 0.065
GCGAAGCAAUAUUACGAAGA	-2.14 ± 0.22	-0.931 ± 0.21
GCGAAGCAAUAUUACGACGU	-2.69 ± 0.21	-2.02 ± 0.2
GCGAAGCAAUAUUACGAGAU	-2.89 ± 0.2	-1.86 ± 0.22
GCGAAGCAAUAUUACGAGUC	-2.93 ± 0.13	-2.33 ± 0.21
GCGAAGCAAUAUUACGCAAU	-3.2 ± 0.2	-2.07 ± 0.19
GCGAAGCAAUAUUACGCGUA	-2.03 ± 0.16	-0.565 ± 0.13
GCGAAGCAAUAUUACGGAAG	-2.62 ± 0.18	-1.93 ± 0.16
GCGAAGCAAUAUUACGGACU	-0.302 ± 0.12	0.296 ± 0.13
GCGAAGCAAUAUUACGGAGG	-2.1 ± 0.18	-0.467 ± 0.12
GCGAAGCAAUAUUACGGCGC	-2.48 ± 0.29	-1.01 ± 0.43
GCGAAGCAAUAUUACGGCGG	-2.38 ± 0.19	-1.34 ± 0.27
GCGAAGCAAUAUUACGGUAA	-2.4 ± 0.15	-1.65 ± 0.12
GCGAAGCAAUAUUACGGUGC	-3.75 ± 0.18	-2.95 ± 0.18

Sequence	self-splicing fitness (ln) (30 °C)	self-splicing fitness (ln) (37 °C)
GCGAAGCAAUAUUACGUAAU	-1.22 ± 0.097	-1.07 ± 0.11
GCGAAGCAAUAUUACGUACG	-2.46 ± 0.37	-2.24 ± 0.34
GCGCAGCAAUAUUACGAAGC	-2.98 ± 0.25	-2.37 ± 0.18
GCGCAGCAAUAUUACGAAGU	-0.905 ± 0.13	-0.493 ± 0.16
GCGCAGCAAUAUUACGACAC	-0.738 ± 0.38	–
GCGCAGCAAUAUUACGACCA	-1.56 ± 0.25	-0.19 ± 0.23
GCGCAGCAAUAUUACGAGCA	-3.48 ± 0.21	-1.11 ± 0.14
GCGCAGCAAUAUUACGAGUA	-2.36 ± 0.11	-0.845 ± 0.096
GCGCAGCAAUAUUACGAUUC	-0.291 ± 0.09	0.1 ± 0.1
GCGCAGCAAUAUUACGCAAA	-1.8 ± 0.087	-0.777 ± 0.078
GCGCAGCAAUAUUACGCAAG	-3.82 ± 0.23	-2.52 ± 0.15
GCGCAGCAAUAUUACGCAUC	-0.685 ± 0.092	-0.339 ± 0.098
GCGCAGCAAUAUUACGCCAA	–	-1.42 ± 0.47
GCGCAGCAAUAUUACGCGAA	-0.172 ± 0.065	-0.153 ± 0.083
GCGCAGCAAUAUUACGCUAG	-3.26 ± 0.28	-2.15 ± 0.33
GCGCAGCAAUAUUACGCUGC	–	-3.59 ± 0.43
GCGCAGCAAUAUUACGGAUA	-1.98 ± 0.16	-0.989 ± 0.13
GCGCAGCAAUAUUACGGCUU	0.000989 ± 0.11	0.531 ± 0.15
GCGCAGCAAUAUUACGGGAC	-2.13 ± 0.097	0.393 ± 0.096
GCGCAGCAAUAUUACGGUCG	-2.26 ± 0.23	-1.81 ± 0.22
GCGCAGCAAUAUUACGUAGA	-2.28 ± 0.1	-0.72 ± 0.099
GCGCAGCAAUAUUACGUAUC	-0.438 ± 0.068	-0.609 ± 0.085
GCGCAGCAAUAUUACGUCCA	-1.63 ± 0.12	-0.0959 ± 0.18
GCGCAGCAAUAUUACGUGCU	-4.09 ± 0.2	-2.87 ± 0.23
GCGCAGCAAUAUUACGUGUG	-3.2 ± 0.12	-2.65 ± 0.15

Sequence	self-splicing fitness (ln) (30 °C)	self-splicing fitness (ln) (37 °C)
GCGCAGCAAUAUUACGUUAA	-1.45 ± 0.089	-0.728 ± 0.088
GCGCAGCAAUAUUACGUUCA	-0.782 ± 0.098	0.151 ± 0.1
GCGCAGCAAUAUUACGUUGA	-0.0364 ± 0.078	-0.504 ± 0.085
GCGGAGCAAUAUUACGACAC	-0.913 ± 0.22	–
GCGGAGCAAUAUUACGACCA	–	-1.68 ± 0.41
GCGGAGCAAUAUUACGACUU	-0.726 ± 0.15	-1.48 ± 0.29
GCGGAGCAAUAUUACGCAUA	-2.55 ± 0.49	-2.74 ± 0.36
GCGGAGCAAUAUUACGCUCA	-0.528 ± 0.3	-0.54 ± 0.26
GCGGAGCAAUAUUACGCUGA	-3.01 ± 0.35	–
GCGGAGCAAUAUUACGCUUA	–	1.64 ± 0.37
GCGGAGCAAUAUUACGGACU	-3.06 ± 0.35	-0.993 ± 0.19
GCGGAGCAAUAUUACGGGUU	-4.22 ± 0.29	-1.49 ± 0.14
GCGGAGCAAUAUUACGGUUA	-2.84 ± 0.29	-0.698 ± 0.21
GCGGAGCAAUAUUACGUCGU	-4.11 ± 0.35	-2.24 ± 0.36
GCGGAGCAAUAUUACGUUCA	-0.896 ± 0.11	-0.33 ± 0.096
GCGUAGCAAUAUUACGAAGG	–	-2.27 ± 0.5
GCGUAGCAAUAUUACGACUG	-1.54 ± 0.17	-0.415 ± 0.17
GCGUAGCAAUAUUACGAGGG	-3.37 ± 0.16	-1.96 ± 0.17
GCGUAGCAAUAUUACGAUCC	-2.41 ± 0.13	-0.852 ± 0.15
GCGUAGCAAUAUUACGAUUA	-0.494 ± 0.082	0.608 ± 0.085
GCGUAGCAAUAUUACGCAAA	-2.37 ± 0.33	-3.44 ± 0.42
GCGUAGCAAUAUUACGCCCG	–	0.544 ± 0.44
GCGUAGCAAUAUUACGCCUA	-1.76 ± 0.45	-1.07 ± 0.35
